Source: article PMC12638815 (2025)
Numbering of substitutions follows the chain as printed.

B1: VHH B10 (VHH)
VHH: QVQLVESGGGLVQAGDSLRLSCAASGRTFSSYAMGWFRQALGKEREFVAVISGSGTSTYYTDSVKGRFTISRDNAKNTVYLQMNSLKPEDTAVYYCARAKGFSTIYNQDEGRYDYWGQGTQVTVSS
B2: VHH B09 (VHH)
VHH: QVQLVESGGGLVQAGGSLRLSCATSRSTFSSNTIGWYRQAPGKQRELVASISTSGNTYYADSVKGRFAISRDNAENTVYLQMNSLKPEDTAVYYCNTPSRRISNFWGQGTQVTVSS
B3: VHH B07 (VHH)
VHH: B2 VHH with Q1E, V5Q, E6A, T24A, S31T, A60P

These binders were tested against hACE2 peptidase domain fused to a human Fc from IgG (human) (assay: BLI).
Chain of hACE2 peptidase domain fused to a human Fc from IgG (human) (Q9BYF1 19-615): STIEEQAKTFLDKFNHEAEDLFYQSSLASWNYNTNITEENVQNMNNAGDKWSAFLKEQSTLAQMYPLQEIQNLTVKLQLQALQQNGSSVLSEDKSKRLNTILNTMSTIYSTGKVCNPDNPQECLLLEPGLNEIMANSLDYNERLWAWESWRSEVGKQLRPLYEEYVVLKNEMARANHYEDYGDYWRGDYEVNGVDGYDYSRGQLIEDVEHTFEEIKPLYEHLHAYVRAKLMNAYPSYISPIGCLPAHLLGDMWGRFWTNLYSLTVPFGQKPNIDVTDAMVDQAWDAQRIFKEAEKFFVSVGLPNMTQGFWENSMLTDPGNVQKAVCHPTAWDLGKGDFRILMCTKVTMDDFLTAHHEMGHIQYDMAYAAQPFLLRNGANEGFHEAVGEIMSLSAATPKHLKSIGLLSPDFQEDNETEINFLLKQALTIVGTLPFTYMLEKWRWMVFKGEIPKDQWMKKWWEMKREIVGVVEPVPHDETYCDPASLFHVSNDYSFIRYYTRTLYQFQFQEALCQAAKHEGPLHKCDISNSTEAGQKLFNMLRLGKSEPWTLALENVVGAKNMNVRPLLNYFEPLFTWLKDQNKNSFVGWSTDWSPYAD

Going from B1 to B2, the koff falls from 0.000411 s⁻¹ to 0.000106 s⁻¹ (3.9-fold).

With B3 the koff was 0.0001 s⁻¹.
